Results from patent US20140234868A1, “USE FOR GLYCOLIPOPROTEIN GINTONIN, ISOLATED AND IDENTIFIED FROM GINSENG, AS A NATURAL MEDICAL-PLANT DERIVED LIGAND” (KONKUK UNIVERSITY INDUSTRIAL COOPERATION CORP., priority 2011, published 2014).

T1: LPA3 receptor (Homo sapiens, UniProt Q9UBY5)
T1 construct: host or cells: B103 rat neuroblastoma cells
T1 sequence (Q9UBY5 1-353): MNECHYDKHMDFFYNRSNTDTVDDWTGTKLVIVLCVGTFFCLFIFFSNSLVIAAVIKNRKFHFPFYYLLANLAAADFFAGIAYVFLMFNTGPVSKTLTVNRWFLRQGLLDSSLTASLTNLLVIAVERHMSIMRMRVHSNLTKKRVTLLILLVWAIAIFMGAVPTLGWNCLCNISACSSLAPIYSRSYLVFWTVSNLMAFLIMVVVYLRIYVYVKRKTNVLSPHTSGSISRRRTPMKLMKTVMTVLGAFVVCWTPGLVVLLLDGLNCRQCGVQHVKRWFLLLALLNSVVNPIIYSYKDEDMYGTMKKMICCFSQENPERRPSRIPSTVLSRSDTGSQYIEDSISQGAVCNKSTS

B1: gintonin: ginseng-derived glycolipoprotein; structural protein of ginseng major latex-like protein (MLP151) and ribonuclease-like storage proteins; crude gintonin used in tests (protein)
chain 1: MGLTGKLICQTGIKSDGDVFHELFGTRPHHVPNITPANIQGCDLHEGEFGKVGSVVIWNYSIDGNAMIAKEEIVAIDEEDKSVTFKVVEGHLFEEFKSIVFSVHVDTKGEDNLVTWSIDYEKLNESVKDPTSYLDFLLSVTRDIEAHHLPK
chain 2: RSDYPWAMFALRLQWPAGFCEVNNACDTKSLLNTFTIHGLYPYNAKGTPALYCDGTAFDVNSVSDFLAEMHLAWPSHETNTEDIQFWEHEWKKHGRCSEALLKQTDYFRTALAFRKAFDIVGLLNQEGIYPNNDLYRPKMIKEAIKKHLNAVPEIDFTKNENSEYVLTDINVCVNQQATRFVDCPTDDATDDYRLKFVRLPSKMKFADPRTNSII

Columns and labels:
BKCaK+ channels = experiment: BKCa K+ channel activity in Xenopus oocytes, two-electrode voltage clamp; assay type: cell-based
Method in brief: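 Two-electrode voltage clamp was performed at room temperature on stage V-VI Xenopus oocytes. Oocytes were perfused with Cl−/Ca2+-free solution, pH 7.4, containing 500 μM anthracene-9-carboxylic acid. Outward currents were recorded on 400 ms steps from −80 mV holding to +40 mV.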

LPA3 receptor = target: T1, LPA3 receptor; experiment: Intracellular cAMP level in LPA3-expressing B103 cells; assay type: cell-based
Excerpt: After treatment with gintonin, B103 cells expressing LPA3 or LPA6 receptor were examined for change in intracellular cAMP level.

Molecule | effect on gintonin-induced BKCaK+ channel activation (BKCaK+ channels; Kil6425 10 μM, U73122, U73343 1 μM, 2-APB 100 μM, BAPTA-AM, PMA 1 μM) | ED50, BKCaK+ channel activation (BKCaK+ channels; BKCaK+ channels expressed in Xenopus oocytes) | BKCa channel activity on repetitive treatment (desensitization) (BKCaK+ channels; repetitive treatments, data not shown) | change in intracellular cAMP level (LPA3 receptor)
Cc1noc(-c2ccc(CSCCC(=O)O)cc2)c1NC(=O)OC(C)c1ccccc1Cl (stereo not shown) [Kil6425] | reduced the gintonin-induced activation of BKCaK^+ channels |  |  | 
B1 |  | 0.71 ± 0.08 µg/mL | Repetitive treatments of gintonin reduced BKa channel activity | no influences on intracellular cAMP level
